Among the data in PMC12533913 are Kd values, retold here.

Holding throughout (assay): SPR
The target in test [1] is Influenza NA protein (recombinant, bought) (Influenza A virus (strain not stated)) (UniProt P03470).
In test [2] the target is Influenza A virus A/WSN/1933 (H1N1) particles, purified (Influenza A virus A/WSN/1933 (H1N1)) (UniProt P03470).
Test [3] deals with Influenza A H1N1 (A/Puerto Rico/8/34/Mount Sinai) Matrix protein 1 / M1 Protein (His Tag) (Influenza A virus A/Puerto Rico/8/34/Mount Sinai (H1N1)) (UniProt P03485).
Chain of UniProt P03485 (P03485 whole entry): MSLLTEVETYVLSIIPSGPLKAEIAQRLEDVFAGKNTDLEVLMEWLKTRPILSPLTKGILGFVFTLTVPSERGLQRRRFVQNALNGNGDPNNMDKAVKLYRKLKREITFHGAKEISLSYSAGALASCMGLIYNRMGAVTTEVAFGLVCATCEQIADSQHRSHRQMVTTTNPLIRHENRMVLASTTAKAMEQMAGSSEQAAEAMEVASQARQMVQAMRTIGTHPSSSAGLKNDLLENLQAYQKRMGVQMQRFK

For the substance “TfR1 protein (recombinant, bought from Sino Biological) (from UniProt P02786 1-760) (receptor)”, the results for the Kd in test [1], in test [2] and in test [3] were 42.4 nM, 34.6 nM and 75.9 nM, respectively.
